Publication PMC4264199, “Peptide Array on Cellulose Support—A Screening Tool to Identify Peptides with Dipeptidyl-Peptidase IV Inhibitory Activity within the Sequence of α-Lactalbumin” (International Journal of Molecular Sciences, 2014)
Ends that are not written are not given here.

Molecular target: T1, dipeptidyl-peptidase IV (DPP-IV) (Homo sapiens, UniProt P27487)
T1 construct: purchased Creative BioMart (Shirley, NY, USA); host or cells: HEK293 human cells
Test: DPP-IV inhibition assay on SPOT-synthesized peptides (cleaved from cellulose membrane)
Format: biochemical
Conditions: peptides cleaved from cellulose membrane, concentration not known (semi-quantitative); averages of four determinations from two experiments
Excerpt: Recombinant human dipeptidyl-peptidase IV (DPP-IV, EC 3.4.14.5, expressed in HEK293 human cells, >95% purity, activity >5500 pmoles Gly–Pro–7-amido-4-methylcoumarin/min/µg) was purchased from Creative BioMart (Shirley, NY, USA) while polyclonal goat DPP-IV antibody and polyclonal donkey anti-goat secondary antibody conjugated to horseradish peroxidase were obtained from R&D Systems (Minneapolis, MN, USA). Pierce™ ECL western blotting substrate and protein-free (TBS) blocking buffer were from Thermo Scientific (Rockford, IL, USA). Gly–Pro–p-nitroanilide (H-Gly–Pro–p-NA∙HCl) was purchased from Bachem Americas (Torrance, CA, USA). Synthesized peptides (≥95% purity) were prepared and purified by GL Biochem (Shanghai) Ltd. (Shanghai, China).
Peptide arrays of deca-peptides spanning the entire α-lactalbumin sequence with a frame shift of one amino acid between successive sequences were prepared by Kinexus Bioinformatics Corporation (Vancouver, BC, Canada). The peptides were synthesized from the C-terminal amino acid using the SPOT technology consisting of the stepwise coupling of the Fmoc-protected amino acids and cleavage of the side chain protection groups. The α-lactalbumin-derived peptides were synthesized on trioxatridecanediamine (TOTD) and β-alanine-modified Whatman 540 cellulose membranes for the binding and inhibition assays, respectively. For the inhibition assay, the peptides were synthesized in large dots (5–7 mm in diameter) and the quality of the synthesis was verified by HPLC analysis of quality controls spots included on the membranes.
In order to determine the effect of the SPOT-synthesized peptides on the activity of the DPP-IV enzyme, the peptides were first cleaved from the cellulose support by incubating the membranes with gaseous ammonia overnight. Peptide spots (5 mm in diameter) were then punched out using a single-hole punch and transferred into microcentrifuge tubes containing 150 µL of acetonitrile (50% in 100 mM Tris–HCl buffer pH 8.0). The peptide solution (50 µL) was pipetted into a 96-well microplate with 35 µL of the chromogenic substrate Gly–Pro–p-NA (0.29 mM in 100 mM Tris–HCl buffer pH 8.0). The mixture was pre-incubated for 10 min at 37 °C, whereupon 15 µL of DPP-IV (25 mU/mL) was added and the enzymatic reaction was carried out for 30 min at 37 °C. The reaction was then terminated by addition of 100 µL of 1 M sodium acetate buffer pH 4.0 and the absorbance of the released p-nitroaniline was measured at 405 nm using a Tecan Infinite® 200 Pro microplate reader (ESBE Scientific, Markham, ON, Canada). Positive and negative controls (DPP-IV activity with no inhibitor and no DPP-IV activity, respectively) were prepared using punched peptide-free cellulose spots from the same membrane used for peptide synthesis, and adding Tris-HCl buffer in place of the sample and in place of the sample and enzyme solution, respectively.
One unit of DPP-IV was defined as the concentration of enzyme that releases 1 µmol per min of p-nitroaniline from Gly–Pro–p-NA (100 µM) at 37 °C and pH 8.0.

T1 sequence (P27487 whole entry): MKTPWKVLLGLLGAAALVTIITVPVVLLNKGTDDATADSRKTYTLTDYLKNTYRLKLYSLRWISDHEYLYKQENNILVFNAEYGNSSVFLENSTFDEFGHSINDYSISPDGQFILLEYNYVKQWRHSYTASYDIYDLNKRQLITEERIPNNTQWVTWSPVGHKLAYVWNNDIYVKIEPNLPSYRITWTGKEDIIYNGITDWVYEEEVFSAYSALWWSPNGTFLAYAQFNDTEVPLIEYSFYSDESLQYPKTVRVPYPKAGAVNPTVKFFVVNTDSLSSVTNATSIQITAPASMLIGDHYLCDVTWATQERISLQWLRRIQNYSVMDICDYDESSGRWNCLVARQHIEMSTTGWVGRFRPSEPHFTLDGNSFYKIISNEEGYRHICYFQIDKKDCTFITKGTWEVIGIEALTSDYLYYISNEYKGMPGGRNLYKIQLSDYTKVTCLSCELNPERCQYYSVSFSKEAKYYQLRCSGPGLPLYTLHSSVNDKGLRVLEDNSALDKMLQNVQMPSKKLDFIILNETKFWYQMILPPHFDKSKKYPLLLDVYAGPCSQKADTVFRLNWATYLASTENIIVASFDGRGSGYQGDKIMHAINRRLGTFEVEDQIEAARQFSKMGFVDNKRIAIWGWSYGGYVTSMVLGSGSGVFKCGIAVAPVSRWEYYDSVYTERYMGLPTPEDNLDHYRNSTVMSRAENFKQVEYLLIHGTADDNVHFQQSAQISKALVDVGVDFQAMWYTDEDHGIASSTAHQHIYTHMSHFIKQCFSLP

Row | Substance | Percent inhibition of DPP-IV activity, SPOT-synthesized deca-peptides [%]
1 | B1: α-lactalbumin-derived deca-peptide, residues 12–21 (Table S1) (LKDLKGYGGV; UniProt P00711 31-40, looked up, fragment) | 11
2 | J4: α-lactalbumin-derived deca-peptide, residues 103–112 (Table S1) (YWLAHKALCS; UniProt P00711 122-131, looked up, fragment) | 20
3 | I7: α-lactalbumin-derived deca-peptide, residues 95–104 (Table S1) (ILDKVGINYW; UniProt P00711 114-123, looked up, fragment) | 19
4 | H6: α-lactalbumin-derived deca-peptide, residues 83–92 (Table S1) (DDLTDDIMCV; UniProt P00711 102-111, looked up, fragment) | 19
5 | H5: α-lactalbumin-derived deca-peptide, residues 82–91 (Table S1) (DDDITDDIMC; UniProt P00709 101-110, looked up, fragment) | 14
6 | I11: α-lactalbumin-derived deca-peptide, residues 99–108 (Table S1) (VGINYWLAHK; UniProt P00711 118-127, looked up, fragment) | 20
7 | A7: α-lactalbumin-derived deca-peptide, residues 7–16 (Table S1) (EVFRELKDLK; UniProt P00711 26-35, looked up, fragment) | 18
8 | G2: α-lactalbumin-derived deca-peptide, residues 68–77 (Table S1) (HSSNICNISC; UniProt P00711 87-96, looked up, fragment) | 9
9 | D1: α-lactalbumin-derived deca-peptide, residues 34–43 (Table S1) (SGYDTQAIVE; UniProt P00709 53-62, looked up, fragment) | 11
10 | C3: α-lactalbumin-derived deca-peptide, residues 25–34 (Table S1) (ELICTMFHTS; UniProt P00709 44-53, looked up, fragment) | 18
11 | H8: α-lactalbumin-derived deca-peptide, residues 85–94 (Table S1) (LTDDIMCVKK; UniProt P00711 104-113, looked up, fragment) | 20
12 | H4: α-lactalbumin-derived deca-peptide, residues 81–90 (Table S1) (LDDDLTDDIM; UniProt P00711 100-109, looked up, fragment) | 21
13 | J1: α-lactalbumin-derived deca-peptide, residues 100–109 (Table S1) (GIDYWLAHKA; UniProt P00709 119-128, looked up, fragment) | 25
14 | NPHSSNICNI [F11, NPHSSNICNI] | 15
15 | G7: α-lactalbumin-derived deca-peptide, residues 73–82 (Table S1) (CNISCDKFLD; UniProt P00711 92-101, looked up, fragment) | 17
16 | B4: α-lactalbumin-derived deca-peptide, residues 15–24 (Table S1) (LKGYGGVSLP; UniProt P00711 34-43, looked up, fragment) | 13

Other lines, results leading:

Row | Percent inhibition of DPP-IV activity, SPOT-synthesized deca-peptides [%] | Substance
17 | 19 | KLDQWLCEKL [K4]
18 | 14 | NDSTEYGLFQ [E1]
19 | 13 | STEYGLFQIN [E3]
20 | 9 | SLPEWVCTTF [B11]
21 | 11 | AIVQNNDSTE [D7]
